Usually kcat stands for the number of substrate molecules converted per active site and unit of time at saturation. What is called Km is the substrate concentration at which the rate is half of its maximum.

Positions count from the first letter of the chain named. Names and notes keep the numbering of the source.

Data on 6 molecules can be found in US7939292B2, “Modified heparinase III and methods of sequencing therewith” (Massachusetts Institute of Technology, priority 2000, dated 2011).

Series [1] in a line: Heparinase III kinetic assay of r-heparinase III and histidine mutants. Conditions: for kcat / Km: heparan sulfate; for Km: calculated assuming a molecular weight of 15 kDa. It counts as biochemical. The protocol: The activity of heparinase III was measured using a UV 232 nm assay similar to those reported for heparinase I and heparinase II (Godavarti, R., Cooney, C. L., Langer, R., and Sasisekharan, R. (1996) Biochemistry 35, 6846-52; Shriver, Z., Hu, Y., and Sasisekharan, R. (1998) J. Biol. Chem. 273, 10160-67; and Lohse, D. and Linhardt, R. J. (1992) J. Biol. Chem. 267, 781-87). Briefly, the increase in absorbance at 232 nm as a function of time was monitored under saturating substrate conditions. All assays were performed with heparan sulfate at a concentration of 2 mg/ml in 50 mM sodium phosphate, pH 7.6. The temperature for enzymatic activity measurements was kept constant at 35° C.
In parallel to the mapping studies and to confirm the results of the chemical modification experiments, each of the thirteen histidine residues present in heparinase III was mutated to alanine. The recombinant heparinase III mutant proteins were expressed, purified, and assessed for enzymatic activity towards heparan sulfate (Table 2).

A short description of series [2]: SAX-HPLC analysis of exhaustive heparan sulfate digests. It counts as biochemical. To be noted: for catalytic activity in overnight heparan sulfate digests: SAX-HPLC, overnight 37° C. The protocol:
Exhaustive digests of 3 mg/ml heparan sulfate in 50 mM sodium phosphate buffer, pH 7.6 were performed overnight at 37° C. for each of the mutants (20 μg protein). The reactions were loaded onto a Spherisorb S5 SAX column (Waters) and eluted using a linear gradient of 0.2-1.0 M NaCl, pH 3.5. The products were monitored at 232 nm and each of the major peaks was collected. To determine their composition, the collected fractions were analyzed by capillary electrophoresis and identified by comigration with known standards.
As a control, the r-heparinase III construct without its putative signal sequence was expressed. The concentration and purity of all recombinant enzyme preparations were determined using SDS-PAGE. The recombinantly expressed heparinase III was also compared to the heparinase III isolated from F. heparinum to ensure that they were the same molecular weight. Heparinase III (20 μg/mL) was incubated with a 4 mg/mL of heparan sulfate overnight at 37° C. The reaction was loaded onto a SAX column and the saccharide products were eluted using a gradient of 0.2-1.0 M NaCl, pH 3.5 over 30 min. and monitored at 232 nm. (A) Heparan sulfate digested with heparinase III from F. heparinum. (B) Heparan sulfate digested with recombinant heparinase III. (C) Heparan sulfate digested with the H295A mutant enzyme. (D) Heparan sulfate digested with the H510A mutant enzyme. (E) Heparan sulfate digested with the H105A mutant enzyme.

The subject of the next series is B16BL6 melanoma. In words: Primary tumor growth of B16BL6 melanoma in mice treated with heparinases. In kind it is in vivo. The text has this: Heparinases I and III, which have very distinct substrate specificities for cleaving HLGAGs, were employed as tools to investigate the role of HLGAGs in tumor growth and metastasis. While heparinase I cleaves at the highly sulfated regions of HLGAGs, heparinase III only cleaves at the under-sulfated regions of the polysaccharide chain, thereby rendering these enzymes powerful tools to investigate in vivo and in vitro roles of HLGAGs, in development, morphogenesis, angiogenesis etc. To examine the roles of HLGAGs in tumor growth and metastasis, we used B16BL6 melanoma as a model system and treated tumor-bearing mice with either heparinases I or III to investigate both primary tumor growth as well as tumor metastasis. Consistent with the current paradigm, heparinase I accelerated tumor growth (FIG. 8). At a dosage of 0.5 mg/kg/day of heparinase I, tumor growth was increased by about 39%. […] Inhibition of primary tumor growth by heparinase III was first observed at 2 mg/kg per day. Tumor growth was inhibited by 73% at 12 mg/kg per day, the maximum dosage tested in the study (FIG. 8).
Mice, 15 days after tumor implantation with B16BL6 melanoma, were examined. 4×10^5 log growth phase B16BL6 melanoma cells in 0.1 ml PBS were injected to the flank of C57BL/6 mice on day 1. Daily injection of 0.1 ml of PBS, heat inactivated hep III or active heparinase III (2 mg/ml, recombinantly expressed, purified, buffer exchanged with PBS, and concentrated) started at the day 4 and continued throughout the experiment. At day 7, osmotic pumps (100 μl capacity delivering at 0.5 μl per hour) containing PBS or 3 mg/ml hep III were implanted subcutaneously at a place remote from the tumor site. Mice were sacrificed at day 15.
FIG. 8 depicts the tumor volume of the tumors isolated from the mice described above. Tumor volume was measured daily after day 7 with a caliper and calculated with the formula [volume=0.52×(width)^2×(length)].

B1: wild-type r-heparinase III: recombinantly expressed heparinase III construct without its putative signal sequence, His-tagged, from E. coli (protein, UniProt Q59289 25-659, looked up)
Heparin-sulfate lyase: QSSSITRKDFDHINLEYSGLEKVNKAVAAGNYDDAAKALLAYYREKSKAREPDFSNAEKPADIRQPIDKVTREMADKALVHQFQPHKGYGYFDYGKDINWQMWPVKDNEVRWQLHRVKWWQAMALVYHATGDEKYAREWVYQYSDWARKNPLGLSQDNDKFVWRPLEVSDRVQSLPPTFSLFVNSPAFTPAFLMEFLNSYHQQADYLSTHYAEQGNHRLFEAQRNLFAGVSFPEFKDSPRWRQTGISVLNTEIKKQVYADGMQFELSPIYHVAAIDIFLKAYGSAKRVNLEKEFPQSYVQTVENMIMALISISLPDYNTPMFGDSWITDKNFRMAQFASWARVFPANQAIKYFATDGKQGKAPNFLSKALSNAGFYTFRSGWDKNATVMVLKASPPGEFHAQPDNGTFELFIKGRNFTPDAGVFVYSGDEAIMKLRNWYRQTRIHSTLTLDNQNMVITKARQNKWETGNNLDVLTYTNPSYPNLDHQRSVLFINKKYFLVIDRAIGEATGNLGVHWQLKEDSNPVFDKTKNRVYTTYRDGNNLMIQSLNADRTSLNEEEGKVSYVYNKELKRPAFVFEKPKKNAGTQNFVSIVYPYDGQKAPEISIRENKGNDFEKGKLNLTLTINGKQQLVLVP
modifications: His tag; no signal sequence
Regarding B1, in series [1], the kcat was 78 s⁻¹ and the Km is 80 µM. Moreover, the “heparan sulfate degradation product profile compared to wild type heparinase III” value in series [2] (SAX-HPLC and capillary electrophoresis) was “identical product profile”.

B2: heat inactivated heparinase III: heat inactivated heparinase III used as control (protein, UniProt Q59289 25-659, looked up)
Heparin-sulfate lyase: B1 Heparin-sulfate lyase
modifications: heat inactivated
In the case of B2, the “tumor mass upon visual inspection compared with active Hep III” value with B16BL6 melanoma (day 15) was “significantly larger tumor masses”. Besides, the “tumor growth curves compared with PBS treated mice” value with B16BL6 melanoma (mouse, in vivo) was “comparable growth curves”.

B3: H105A: recombinant heparinase III with histidine 105 mutated to alanine (protein)
chain: MTTKIFKRIIVFAVIALSSGNILAQSSSITRKDFDHINLEYSGLEKVNKAVAAGNYDDAAKALLAYYREKSKAREPDFSNAEKPADIRQPIDKVTREMADKALVAQFQPHKGYGYFDYGKDINWQMWPVKDNEVRWQLHRVKWWQAMALVYHATGDEKYAREWVYQYSDWARKNPLGLSQDNDKFVWRPLEVSDRVQSLPPTFSLFVNSPAFTPAFLMEFLNSYHQQADYLSTHYAEQGNHRLFEAQRNLFAGVSFPEFKDSPRWRQTGISVLNTEIKKQVYADGMQFELSPIYHVAAIDIFLKAYGSAKRVNLEKEFPQSYVQTVENMIMALISISLPDYNTPMFGDSWITDKNFRMAQFASWARVFPANQAIKYFATDGKQGKAPNFLSKALSNAGFYTFRSGWDKNATVMVLKASPPGEFHAQPDNGTFELFIKGRNFTPDAGVFVYSGDEAIMKLRNWYRQTRIHSTLTLDNQNMVITKARQNKWETGNNLDVLTYTNPSYPNLDHQRSVLFINKKYFLVIDRAIGEATGNLGVHWQLKEDSNPVFDKTKNRVYTTYRDGNNLMIQSLNADRTSLNEEEGKVSYVYNKELKRPAFVFEKPKKNAGTQNFVSIVYPYDGQKAPEISIRENKGNDFEKGKLNLTLTINGKQQLVLVP
For the molecule B3, the “catalytic activity in overnight heparan sulfate digests” value in series [2] is listed as “retain their catalytic activity”.

B4: H469A: recombinant heparinase III with histidine 469 mutated to alanine (protein)
chain: B3 chain with A105H, H469A
Take B4: in series [1], the “changes in recombinant protein yield, enzyme activity, or kinetic parameters compared with r-heparinase III” value is listed as “no significant changes”; the kcat was found to be 100 s⁻¹; the Km is 71 µM.

B5: H424A: recombinant heparinase III with histidine 424 mutated to alanine (protein)
chain: B3 chain with A105H, H424A
On to B5, for which, in series [1], the “changes in recombinant protein yield, enzyme activity, or kinetic parameters compared with r-heparinase III” value is on record as “no significant changes”; the kcat amounted to 24 s⁻¹; the Km was 59 µM.

B6: H110A: recombinant heparinase III with histidine 110 mutated to alanine (protein)
chain: B3 chain with A105H, H110A
As for B6, in series [1], the kcat amounted to 37 s⁻¹ and the Km is 9 µM. In addition, the “catalytic activity in overnight heparan sulfate digests” value in series [2] is “retain their catalytic activity”.
